# Residue numbers refer to the chain shown, from its start.
# B1: UGT76G1var17: UGT76G1 variant, mutations F265L_Q266E_Q342K (protein, UniProt Q6VAB4 1-458, looked up, variant F265L Q266E Q342K)
# UDP-glycosyltransferase 76G1: MENKTETTVRRRRRIILFPVPFQGHINPILQLANVLYSKGFSITIFHTNFNKPKTSNYPHFTFRFILDNDPQDERISNLPTHGPLAGMRIPIINEHGADELRRELELLMLASEEDEEVSCLITDALWYFAQSVADSLNLRRLVLMTSSLFNFHAHVSLPQFDELGYLDPDDKTRLEEQASGFPMLKVKDIKSAYSNWQILKEILGKMIKQTKASSGVIWNSFKELEESELETVIREIPAPSFLIPLPKHLTASSSSLLDHDRTVLEWLDQQPPSSVLYVSFGSTSEVDEKDFLEIARGLVDSKQSFLWVVRPGFVKGSTWVEPLPDGFLGERGRIVKWVPQKEVLAHGAIGAFWTHSGWNSTLESVCEGVPMIFSDFGLDQPLNARYMSDVLKVGVYLENGWERGEIANAIRRVMVDEEGEYIRQNARVLKQKADVSLMKGGSSYESLESLVSYISSL
# B2: UGT76G1var18: UGT76G1 variant, mutations L243P_S274G_N409R (protein, UniProt Q6VAB4 1-458, looked up, variant L243P S274G N409R)
# UDP-glycosyltransferase 76G1: B1 UDP-glycosyltransferase 76G1 with L243P, L265F, E266Q, S274G, K342Q, N409R
# B3: UGT76G1var19: UGT76G1 variant, mutations E224D_E229A_Q432E (protein, UniProt Q6VAB4 1-458, looked up, variant E224D E229A Q432E)
# UDP-glycosyltransferase 76G1: B1 UDP-glycosyltransferase 76G1 with E224D, E229A, L265F, E266Q, K342Q, Q432E
# B4: UGT76G1var20: UGT76G1 variant, mutations S375M_K393G_Y397E (protein, UniProt Q6VAB4 1-458, looked up, variant S375M K393G Y397E)
# UDP-glycosyltransferase 76G1: B1 UDP-glycosyltransferase 76G1 with L265F, E266Q, K342Q, S375M, K393G, Y397E
# B5: UGT76G1var21: UGT76G1 variant, mutations A239V_V300A_K303G (protein, UniProt Q6VAB4 1-458, looked up, variant A239V V300A K303G)
# UDP-glycosyltransferase 76G1: B1 UDP-glycosyltransferase 76G1 with A239V, L265F, E266Q, V300A, K303G, K342Q
# B6: UGT76G1var22: UGT76G1 variant, mutations E231A_V310I_R334K (protein, UniProt Q6VAB4 1-458, looked up, variant E231A V310I R334K)
# UDP-glycosyltransferase 76G1: B1 UDP-glycosyltransferase 76G1 with E231A, L265F, E266Q, V310I, R334K, K342Q
# B7: UGT76G1var23: UGT76G1 variant, mutations T263S_G348P_A352G (protein, UniProt Q6VAB4 1-458, looked up, variant T263S G348P A352G)
# UDP-glycosyltransferase 76G1: B1 UDP-glycosyltransferase 76G1 with T263S, L265F, E266Q, K342Q, G348P, A352G
# B8: UGT76G1var24: UGT76G1 variant, mutations A239I_P272A_Q425E (protein, UniProt Q6VAB4 1-458, looked up, variant A239I P272A Q425E)
# UDP-glycosyltransferase 76G1: B1 UDP-glycosyltransferase 76G1 with A239I, L265F, E266Q, P272A, K342Q, Q425E
# B9: UGT76G1var25: UGT76G1 variant, mutations T284L_Q342K_Y397Q (protein, UniProt Q6VAB4 1-458, looked up, variant T284L Q342K Y397Q)
# UDP-glycosyltransferase 76G1: B1 UDP-glycosyltransferase 76G1 with L265F, E266Q, T284L, Y397Q
# B10: UGT76G1var26: UGT76G1 variant, mutations S241I_F265L_F377C (protein, UniProt Q6VAB4 1-458, looked up, variant S241I F265L F377C)
# UDP-glycosyltransferase 76G1: B1 UDP-glycosyltransferase 76G1 with S241I, E266Q, K342Q, F377C
# B11: UGT76G1var27: UGT76G1 variant, mutations A239I_L379A_V394I (protein, UniProt Q6VAB4 1-458, looked up, variant A239I L379A V394I)
# UDP-glycosyltransferase 76G1: B1 UDP-glycosyltransferase 76G1 with A239I, L265F, E266Q, K342Q, L379A, V394I
# Assay: Directed evolution of UGT76G1, Rebaudioside D to Rebaudioside M, round 1 (Example 26)
# Format: biochemical
# Settings: 100 μL fresh lysate, 0.5 mM Rebaudioside D, 30° C., pH 7.2
# Procedure: Lysis was performed by addition of Bugbuster® Master mix (Novagen®) to the thawed cells and the lysate was recovered by centrifugation. Activity tests were performed with 100 μL of fresh lysate that was added to a solution of Rebaudioside D (final concentration 0.5 mM), MgCl2 (final concentration 3 mM) and UDP-Glucose (final concentration 2.5 mM) in 50 mM phosphate buffer pH 7.2.
# The reaction was allowed to run at 30° C. and samples were taken after 2, 4, 7 and 24 h. to determine conversion and initial rate by HPLC (CAD detection) using the analytical method that was described above for the transformation of Rebaudioside D to Rebaudioside M. The results are depicted in the following table.
Molecule,conversion Reb D to Reb M after 24 h [%],initial rate [Reb M area/min]
B1,0.7,7.2E+05
B2,1.9,5.0E+05
B3,,5.5E+06
B4,1.8,1.9E+06
B5,,3.3E+07
B6,,2.4E+07
B7,,4.1E+07
B8,31.0,2.1E+07
B9,0.9,6.3E+04
B10,1.8,7.5E+05
B11,29.0,1.5E+07

# Source: patent publication US11653679B2, “High-purity steviol glycosides” (PureCircle Sdn Bhd, priority 2014, dated 2023)
